Data: article PMC2897027 (Journal of molecular biology, 2010)
Each block holds one molecule with its values, some of them ahead of it.

What was measured:
[1] = target: CTD MSK1 construct comprising residues 398-738 (human) (UniProt O75582); test: SEC
[2] = target: CTD MSK1 construct comprising residues 414-750 (human) (UniProt O75582); test: SEC
[3] = target: "full length" C-terminal kinase domain of MSK1 (residues 414-802) (human, UniProt O75582 414-802); test: SPR
Chain of "full length" C-terminal kinase domain of MSK1 (residues 414-802) (O75582 414-802): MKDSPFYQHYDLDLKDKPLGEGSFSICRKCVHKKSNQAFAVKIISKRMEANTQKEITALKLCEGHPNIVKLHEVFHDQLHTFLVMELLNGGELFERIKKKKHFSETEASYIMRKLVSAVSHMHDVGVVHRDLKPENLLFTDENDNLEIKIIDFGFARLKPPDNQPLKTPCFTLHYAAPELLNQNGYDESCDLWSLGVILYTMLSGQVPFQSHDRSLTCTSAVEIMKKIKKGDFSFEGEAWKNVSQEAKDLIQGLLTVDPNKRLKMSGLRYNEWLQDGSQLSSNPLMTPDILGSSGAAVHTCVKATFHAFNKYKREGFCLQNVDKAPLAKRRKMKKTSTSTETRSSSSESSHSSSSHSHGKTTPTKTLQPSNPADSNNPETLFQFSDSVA

stoichiometry N [1]: 2
Molecule: CTD MSK1 construct comprising residues 398-738 (from UniProt O75582 398-738) (domain or fragment)

stoichiometry N [2]: 2
Molecule: CTD MSK1 construct comprising residues 414-750 (from UniProt O75582 414-750) (domain or fragment)

Kd [3]: 74 ± 6 nM
B1: Full length human ERK1 (enzyme, UniProt P27361 1-379, looked up)
chain: MAAAAAQGGGGGEPRRTEGVGPGVPGEVEMVKGQPFDVGPRYTQLQYIGEGAYGMVSSAYDHVRKTRVAIKKISPFEHQTYCQRTLREIQILLRFRHENVIGIRDILRASTLEAMRDVYIVQDLMETDLYKLLKSQQLSNDHICYFLYQILRGLKYIHSANVLHRDLKPSNLLINTTCDLKICDFGLARIADPEHDHTGFLTEYVATRWYRAPEIMLNSKGYTKSIDIWSVGCILAEMLSNRPIFPGKHYLDQLNHILGILGSPSQEDLNCIINMKARNYLQSLPSKTKVAWAKLFPKSDSKALDLLDRMLTFNPNKRITVEEALAHPYLEQYYDPTDEPVAEEPFTFAMELDDLPKERLKELIFQETARFQPGVLEAP
